Molecular target: SARS-CoV-2 Receptor Binding Domain (RBD) (SARS-CoV-2, UniProt P0DTC2)
Experiment: ELISA
Settings: both partners purified

B1: NIH-CoVnb-112 (VHH)
VHH: DVQLQESGGGLVQPGGSLRLSCAASGLTLDYYAIGWFRQAPGKEREGVSCISSSDGSTYYADSVKGRFTTSRDNAKNTVYLQMNSLKPEDTAVYYCAAVPSTYYSGTYYYTCHPGGMDYWGKGTQVTVSS
notes: also called lead nanobody candidate; anti-SARS-CoV-2 RBD nanobody; source: E. coli BL21 (DE3), periplasm by osmotic shock, purified (HisTrap, Superdex 75)
  EC50: 1.11 nM
